Measurements from publication PMC9259572.

Target: full-length epidermal growth factor receptor (EGFR) with a SNAP tag at the C-terminal position, embedded in a lipid bilayer nanodisc (UniProt P00533)

B1: Human epigen (ligand)
chain: AAVTVTPPITAQQGNWTVNKTEADNIEGPIALKFSHLCLEDHNSYCINGACAFHHELEKAICRCFTGYTGERCEHLTLTSYAVDSYEKYIAIGIGVGLLLSGFLVIFYCYIRKRCLKLKSPYNVCSGERRPL
  smFRET donor fluorescence lifetime of WT EGFR in nanodiscs (both bilayers) with 1 μM epigen; peak of the distribution: 1.5 ns
